Source: US20060263849A1, “Glucagon-like peptide-1 analogs” (priority 2000, published 2006)
Values joined by “and” are separate entries in the source; they are usually repeats but may differ in a detail not shown here. Equal values may be shown once. Where no end group is shown, it is not given here.

Experiments:
[1] = test system: GLP-1 receptor; experiment: GLP-1 receptor activation, in vitro assays; format: cell-based; conditions: for GLP-1 Receptor Activation: activity relative to the activity of GLP-1(7-37)OH
Source text: “Insulinotropic activity” refers to stimulating insulin secretion in response to elevated glucose levels, thereby causing glucose uptake by cells and decreased serum glucose levels. Insulinotropic activity can be assessed by methods known in the art, including using in vivo experiments and in vitro assays that measure GLP-1 receptor binding activity or receptor activation, e.g., assays employing pancreatic islet cells or insulinoma cells, as described in EP 619,322 to Gelfand, et al., and U.S. Pat. No. 5,120,712, respectively. The entire teachings of these references are incorporated herein by reference.
The ability of the GLP-1 compounds of the present invention to activate the GLP-1 receptor was assessed using in vitro assays such as those described in EP 619,322 to Gelfand, et al., and U.S. Pat. No. 5,120,712, respectively. The entire teachings of these references are incorporated herein by reference.

[2] = Zinc precipitation of GLP-1 compounds (A280 of supernatant); format: physicochemical; conditions: HEPES pH 7.4, 22° C., 18 hours
Method: Individual GLP-1 compounds were prepared as described in Examples 1 or 2. 3 mg of an individual lyophilized GLP molecule was dissolved in 3 ml 0.1 M HEPES buffer pH 10.5. The pH of the resulting solution was then adjusted to between 10.0 and 10.5 with 0.2 N NaOH. The solution was stirred at ambient temperature for 30 minutes and the solution was then adjusted to a pH of 7.4 with 0.2 N HCl. The solution was filtered through an appropriate syringe filter, for example a Millex GV syringe filter (Millipore Corporation, Bedford, Mass.), and the concentration of the GLP-1 compound was estimated by measuring the absorption at 280 nm in a spectrophotometer, for example a Beckman DU640. The protein concentration was then adjusted to 200 μM in HEPES pH 7.4.
The filtered GLP-1 solutions (100 μl) were diluted with 100 μl of 0.1 M HEPES pH 7.4 containing various levels of zinc chloride in an ELISA plate, (e.g. Falcon Microtest™ 96) resulting in 200 μl of solution containing various levels of zinc chloride and 100 μM GLP-1 compounds. These solutions were incubated at ambient temperature (22° C.) for 18 hours and then centrifuged, for example, in a Jouan CR412 centrifuge with microplate adapters. 150 μl of the supernatants after centrifugation were then transferred to a UV-readable ELISA microtiter plate (e.g. Costar UV plate) and the OD at 280 was determined in a microplate reader (e.g. Molecular Devices SPECTRAmax PLUS, SOFTmax PRO). A280 values are the result of two independent determinations.

[3] = GLP Aggregation Assay (time to onset of aggregation, turbidity at 350 nm); format: physicochemical; conditions: for Aggregation Time: 0.3 mg/mL in 10 mM citrate, 10 mM phosphate, 150 mM NaCl, pH 7.4 to 7.5, 37° C., stirred, turbidity at 350 nm
Method: GLP peptides of this invention were analyzed with respect to their potential to aggregate in solution. In general, peptides in solution were stirred at elevated temperature in a suitable buffer while recording turbidity at 350 nm as a function of time. Time to the onset of aggregation was measured to quantify the potential of a given GLP molecule to aggregate under these stressed conditions.
A GLP-1 compound was first dissolved under alkaline conditions (pH 10.5) for 30 minutes to dissolve any pre-aggregated material. The solution was then adjusted to pH 7.4 and filtered. Specifically, 4 mg of a lyophilized GLP-1 compound was dissolved in 3 ml of 10 mM phosphate/10 mM citrate. The pH was adjusted to 10.0-10.5 and held for 30 minutes. The solution was adjusted with HCl to pH 7.4 and filtered through a suitable filter, for example a Millex GV syringe filter (Millipore Corporation, Bedford, Mass.). This solution was then diluted to a final sample containing 0.3 mg/mL protein in 10 mM citrate, 10 mM phosphate, 150 mM NaCl, and adjusted to pH 7.4 to 7.5. […] Every five minutes the turbidity of the solution was measured at 350 nm on an AVIV Model 14DS UV-VIS spectrophotometer (Lakewood, N.J.). For 30 seconds prior to and during the measurement the solution was stirred using a magnetic stir bar from Starna Cells, Inc. (Atascadero, Calif.). An increase in OD at 350 nm indicates aggregation of the GLP-peptide. The time to aggregation was approximated by the intersection of linear fits to the pre-growth and growth phase according to method of Drake (Arvinte T, Cudd A, and Drake A F. (1993) J. Bio. Chem. 268, 6415-6422).
The cuvette was cleaned between experiments with a caustic soap solution (e.g., Contrad-70).
The results for a number of GLP-1 compounds of the present invention are reported in Table 1 as the time in hours required for the compound to aggregate.

[4] = Zn/GLP-1 molar ratio 0, 100 μM GLP-1 compound
[5] = Zn/GLP-1 molar ratio 0.3, 100 μM GLP-1 compound
[6] = Zn/GLP-1 molar ratio 0.5, 100 μM GLP-1 compound
[7] = Zn/GLP-1 molar ratio 0.7, 100 μM GLP-1 compound
[8] = Zn/GLP-1 molar ratio 1, 100 μM GLP-1 compound
[9] = Zn/GLP-1 molar ratio 2, 100 μM GLP-1 compound
[10] = Zn/GLP-1 molar ratio 3, 100 μM GLP-1 compound
[11] = Zn/GLP-1 molar ratio 5, 100 μM GLP-1 compound

Row | Substance | GLP-1 Receptor Activation [1] | GLP-1 receptor activation greater than GLP-1(7-37)OH ([1]; relative to GLP-1(7-37)OH) | A280 [2, 4] | A280 [2, 5] | A280 [2, 6] | A280 [2, 7] | A280 [2, 8] | A280 [2, 9] | A280 [2, 10] | A280 [2, 11] | Aggregation Time [3] | Aggregation Time in Hours ([3]; *Aggregation time determined at 30° C.) | aggregation time compared with GLP-1(7-37)OH ([3]; relative to GLP-1(7-37)OH)
1 | Val^8-Lys^22-GLP-1(7-37)OH (HVEGTFTSDVSSYLEKQAAKEFIAWLVKGRG) | 0.58 |  | 0.299 | 0.0825 | 0.0905 | 0.1195 | 0.1225 | 0.1675 | 0.1475 | 0.142 | 100 h and 54 h |  | 
2 | Val^8-His^22-GLP-1(7-37)OH (HVEGTFTSDVSSYLEHQAAKEFIAWLVKGRG) | 0.14 |  |  |  |  |  |  |  |  |  | >75 h |  | 
3 | Val^8-His^24-GLP-1(7-37)OH (HVEGTFTSDVSSYLEGQHAKEFIAWLVKGRG) | 0.007 |  |  |  |  |  |  |  |  |  | 3 h |  | 
4 | Val^8-Tyr^12-GLP-1(7-37)OH (HVEGTYTSDVSSYLEGQAAKEFIAWLVKGRG) | 0.81 |  |  |  |  |  |  |  |  |  | 6 h |  | 
5 | Val^8-His^36-GLP-1(7-37)OH (HVEGTFTSDVSSYLEGQAAKEFIAWLVKGHG) | 0.22 |  |  |  |  |  |  |  |  |  | 8 h |  | 
6 | Val^8-Leu^16-Glu^26-GLP-1(7-37)OH (HVEGTFTSDLSSYLEGQAAEEFIAWLVKGRG) | 0.23 |  |  |  |  |  |  |  |  |  | >20 h |  | 
7 | Val^8-Ala^22-GLP-1(7-37)OH (HVEGTFTSDVSSYLEAQAAKEFIAWLVKGRG) | 0.56 |  | 0.289 | 0.202 | 0.107 | 0.104 | 0.110 | 0.110 | 0.104 | 0.119 | 19 h |  | 
8 | Val^8-Gly^36-Pro^37-GLP-1(7-37)NH2 (HVEGTFTSDVSSYLEGQAAKEFIAWLVKGGP-NH2) | 0.53 |  |  |  |  |  |  |  |  |  | 2 h |  | 
9 | Val^8-Lys^20-GLP-1(7-37)OH (HVEGTFTSDVSSYKEGQAAKEFIAWLVKGRG) | 0.33 |  |  |  |  |  |  |  |  |  | 5 h |  | 
10 | Ala^8-His^26-GLP-1(7-37)OH (HAEGTFTSDVSSYLEGQAAHEFIAWLVKGRG) | 0.8 |  |  |  |  |  |  |  |  |  | >24 h |  | 
11 | Val^8-His^37-GLP-1(7-37)OH (HVEGTFTSDVSSYLEGQAAKEFIAWLVKGRH) | 0.33 |  |  |  |  |  |  |  |  |  | >40 h |  | 

Now from value to substance, other results behind:

Row | GLP-1 Receptor Activation [1] | GLP-1 receptor activation greater than GLP-1(7-37)OH ([1]; relative to GLP-1(7-37)OH) | Substance | A280 [2, 4] | A280 [2, 5] | A280 [2, 6] | A280 [2, 7] | A280 [2, 8] | A280 [2, 9] | A280 [2, 10] | A280 [2, 11] | Aggregation Time [3] | Aggregation Time in Hours ([3]; *Aggregation time determined at 30° C.) | aggregation time compared with GLP-1(7-37)OH ([3]; relative to GLP-1(7-37)OH)
12 | 0.01 |  | Val^8-Pro^22-GLP-1(7-37)OH (HVEGTFTSDVSSYLEPQAAKEFIAWLVKGRG) | 0.2595 | 0.2455 | 0.2325 | 0.219 | 0.1905 | 0.1695 | 0.1615 | 0.171 | >75 h |  | 
13 | 0.42 |  | Gln^22-GLP-1(7-37)OH (HAEGTFTSDVSSYLEQQAAKEFIAWLVKGRG) | 0.290 | 0.390 | 0.123 | 0.076 | 0.074 | 0.095 | 0.095 | 0.097 | 7 h |  | 
14 | 0.40 |  | Val^8-Asp^22-GLP-1(7-37)OH (HVEGTFTSDVSSYLEDQAAKEFIAWLVKGRG) | 0.288 | 0.2785 | 0.2845 | 0.287 | 0.291 | 0.184 | 0.1485 | 0.1675 | >90 h |  | 
15 | 0.50 |  | Val^8-Ser^22-GLP-1(7-37)OH (HVEGTFTSDVSSYLESQAAKEFIAWLVKGRG) | 0.2855 | 0.2805 | 0.2665 | 0.1825 | 0.149 | 0.0935 | 0.101 | 0.0615 | 22 h |  | 
16 | 0.29 |  | Val^8-Glu^30-GLP-1(7-37)OH (HVEGTFTSDVSSYLEGQAAKEFIEWLVKGRG) |  |  |  |  |  |  |  |  | 30 h |  | 
17 | 1.43 |  | Val^8-Glu^22-Lys^23-GLP-1(7-37)OH (HVEGTFTSDVSSYLEEKAAKEFIAWLVKGRG) |  |  |  |  |  |  |  |  | >65 h |  | 
18 | 0.282 |  | Gly^8-His^11-GLP-1(7-37)OH (HGEGHFTSDVSSYLEGQAAKEFIAWLVKGRG) |  |  |  |  |  |  |  |  |  | 9* Hours | 
19 | 1.29 | about 25% | Val^8-Glu^22-GLP-1(7-37)OH (HVEGTFTSDVSSYLEEQAAKEFIAWLVKGRG) | 0.295 | 0.291 | 0.292 | 0.293 | 0.26 | 0.078 | 0.052 | 0.035 | 72 h |  | over twenty fold greater
20 | 0.15 |  | Val^8-Glu^35-GLP-1(7-37)OH (HVEGTFTSDVSSYLEGQAAKEFIAWLVKERG) |  |  |  |  |  |  |  |  | 63 h |  | 
21 | 0.7 |  | Ala^8-Glu^26-GLP-1(7-37)OH (HAEGTFTSDVSSYLEGQAAEEFIAWLVKGRG) |  |  |  |  |  |  |  |  | >24 h |  | 
